US20250075190A1, “DE NOVO DESIGNED LUCIFERASE” (UNIVERSITY OF WASHINGTON, priority 2022, published 2025)
Where a chain is given by its changes, count along the chain named. In names and notes the source's numbering stands.

B1: native Renilla reniformis luciferase (RLuc) (Renilla reniformis) (protein)
chain: MTSKVYDPEQRKRMITGPQWWARCKQMNVLDSFINYYDSEKHAENAVIFLHGNAASSYLWRHVVPHIEPVARCIIPDLIGMGKSGKSGNGSYRLLDHYKYLTAWFELLNLPKKIIFVGHDWGACLAFHYSYEHQDKIKAIVHAESVVDVIESWDEWPDIEEDIALIKSEEGEKMVLENNFFVETMLPSKIMRKLEPEEFAAYLEPFKEKGEVRRPTLSWPREIPLVKGGKPDVVQIVRNYNAYLRASDDLPKMFIESDPGFFSNAIVEGAKKFPNTEFVKVKGLHFSQEDAPDEMGKYIKSFVERVLKNEQ
notes: host and tag of RLuc not clearly stated
B2: LuxSit: de novo designed DTZ luciferase, 117 residues, SEQ ID NO:1 (protein)
chain: MSEEQIRQFLRRFYEALDSGDADTAASLFHPGVTIHLWDGVTFTSREEFREWFERLFSTRKDAQREIKSLEVRGDTVEVHVQLHATHNGQKHTVDATHHWHFRGNRVTEMRVHINPTG
modifications: VARIANT 1 optionally absent; VARIANT 118 optionally absent
B3: A96M: LuxSit mutant A96M (protein)
chain: B2 chain with A96M
modifications: VARIANT 1 optionally absent; VARIANT 118 optionally absent
B4: LuxSit-f: LuxSit variant A96M/M110V, SEQ ID NO:3, strong initial flash emission (protein)
chain: B2 chain with A96M, M110V
modifications: VARIANT 1 optionally absent; VARIANT 118 optionally absent
B5: M110V: LuxSit mutant M110V (protein)
chain: B2 chain with M110V
modifications: VARIANT 1 optionally absent; VARIANT 118 optionally absent

Legend:
[1] = substrate: Oc1ccc(Cc2nc3c(Cc4ccccc4)nc(-c4ccc(O)cc4)cn3c2O)cc1; assay: Michaelis-Menten kinetics of native Renilla luciferase (RLuc) with CTZ; type: biochemical, Renilla reniformis; conditions: other: substrate CTZ; Table 3; pH 8.0
Description: (§1) Synthetic genes and oligonucleotides were purchased from Integrated DNA Technologies or GenScript. The synthetic gene was inserted between NdeI and XhoI sites of a pET29b+ vector, containing an N-terminal hexahistidine tag followed by a TEV protease cleavage site and a C-terminal stop codon. Restriction endonucleases, Q5 PCR polymerase, and T4 ligase were purchased from NEB. Plasmid DNA, PCR products, or digested fragments were purified by Qiagen DNA purification kits. DNA sequences were analyzed by Genewiz. Coelenterazine (CTZ) was purchased from Gold Biotechnology. Diphenylterazine (DTZ), pyridyl diphenylterazine (8pyDTZ), and Furimazine (FRZ) were purchased from MedChemExpress. […] DNA and protein concentrations were determined by a NanoDrop™ small-volume 8 channel UV/vis spectrometer. […] All luminescence measurements were acquired by a Biotek Synergy Neo2T™ Multi-Mode Plate Reader. To convert relative arbitrary unit (RLU) to the number of photons, Neo2 plate reader was calibrated by determining the chemiluminescence of luminol with known quantum yield in the presence of horseradish peroxidase and hydrogen peroxide in K2CO3 aqueous solution as previously described^45. SDS PAGE and luminescence images were captured by a Bio-Rad ChemiDocT™ XRS+. Images were analyzed using the Fiji image analysis software.
For Michaelis-Menten kinetics measurements, 25 μL of serial diluted DTZ substrate in Tris pH 8.0 buffer was added into the wells of a white 96-well half-area microplate containing 25 μL of purified luciferases (final enzyme concentration: 100 nM; substrate concentration: 0.78 to 50 μM). […] The luminescence signals were monitored until the reactions were completed (0.1 s integration and measurements were taken every 5 s for a total of 40 min). […] In vitro luminescence activity measurements of LuxSit-i expressing HEK293T or HeLa cells were done similarly as 15,000 intact cells or lysates were used in the assay instead of purified luciferases. […]

[2] = for Relative emission intensity: integrated luminescence intensity over the first 20 min, normalized to LuxSit, 25 μM DTZ in Tris pH 8.0 buffer; for increase of activity over LuxSit: DTZ
Description: Each colony was expressed individually in each well of 96-well plates (1 mL culture) and purified accordingly (see Methods). (a) Individual luminescence activity of each selected mutant was plotted and compared to the parent LuxSit. Luminescence activities were measured in the presence of 25 μM DTZ. Luminescence activity (RLU) was shown as the integrated signal over the first 15 min. Statistical analysis of the amino acid frequency versus the luciferase activity at residue (b) 60, (c) 96, and (d) 110.
The cells were plated on 150 mm×15 mm LB agar plates supplemented with carbenicillin and L-arabinose, incubated at 37° C. overnight, and left at 4° C. for another 24 h. As described in the screening of luciferase libraries, colony-based screening by spraying DTZ solution was used to identify active colonies. […] The plates were shaken at 37 C overnight (˜16-18 h) on 96-well plate shakers at 1,100 rpm. Cells were pelleted by centrifugation at 4,000 g for 15 min in a tabletop centrifuge. Media was discarded and the cell pellets were resuspended in 0.2 mL BugBuster HT Protein Extraction buffer. The plates were transferred back to 96-well plate shakers and incubated at 1,100 rpm for an additional 30 min. Cellular debris was pelleted again by centrifugation at 4,000 g for 15 min, soluble lysates were transferred to a new semi-deep 96-well plate, and incubated with 10 μL of magnetic Ni-NTA beads for 30 min to allow binding. The magnetic extractor was used to first transfer the beads from the binding plates to wash plates with 200 μL IMAC wash buffer in each well, and then transfer the beads to elusion plates containing 30 μL IMAC elution buffer in each well. The concentrations of all proteins in each well were determined by the Bradford assay directly. The elution solution in each well was used to make a 25 μL protein solution at indicated concentration and mixed with 25 μL of 50 μM DTZ PBS solution. The luminescence signals were acquired over a course of 15 min while the actual point mutation was identified by sequencing.

[3] = Luciferase activities of re-designed sequences based on LuxSit-i (Table 1); type: biochemical; conditions: LuxSit-f and re-designed sequences based on LuxSit-i (Table 1)
Description: In another embodiment, the proteins comprise an amino acid sequence at least 30%, 35%, 40%, 45%, 50%, 55%, 60%, 65%, 70%, 75%, 80%, 85%, 90%, 91%, 92%, 93%, 94%, 95%, 96%, 97%, 98%, 99%, or 100% identical to the amino acid selected from the group consisting of SEQ ID NO:1-181, as shown in Table 1. SEQ ID NO:5-181 in Table 1 are re-designed amino acid sequences based on LuxSit-i (SEQ ID NO:2), with their luciferase activities shown.

[4] = Circular dichroism spectra and thermal denaturation; type: physicochemical; conditions: 220 nm, 25° C. to 95° C.
Description: as §1
Purified protein samples were prepared at 15 μM in pH 7.4 10 mM phosphate buffer. Spectra from 190 nm to 260 nm were recorded at 25° C., 50° C., 75° C., 95° C., and after cooling back to 25° C. Thermal denaturation was monitored at 220 nm from 25° C. to 95° C. […]

[5] = Luminescent quantum yield of LuxSit variants; type: biochemical; conditions: consuming 125 pmol of DTZ in PBS with 50 nM recombinant luciferase; estimated relative to reported quantum yield of RLuc; mean ± s.d., n = 3
Description: FIG. 10. Additional characterization of LuxSit variants. (a) Normalized emission kinetics of 15,000 intact HeLa cells expressing LuxSit-i, 100 nM purified LuxSit-i, or 100 nM purified LuxSit-f in the presence of 50 μM DTZ. The more extended emission kinetics in HeLa cells is likely due to the diffusion rate of DTZ across cell membranes. […] (c) Luminescent quantum yield was estimated from the integrated luminescence signal until completely converting 125 pmol substrates to photons in the presence of 50 nM corresponding luciferase (see Methods). All data points were plotted as the average of triplicate measurements.
For Michaelis-Menten kinetics measurements, 25 μL of serial diluted DTZ substrate in Tris pH 8.0 buffer was added into the wells of a white 96-well half-area microplate containing 25 μL of purified luciferases (final enzyme concentration: 100 nM; substrate concentration: 0.78 to 50 μM). […] The luminescence signals were monitored until the reactions were completed (0.1 s integration and measurements were taken every 5 s for a total of 40 min). […] In vitro luminescence activity measurements of LuxSit-i expressing HEK293T or HeLa cells were done similarly as 15,000 intact cells or lysates were used in the assay instead of purified luciferases. […] Data were shown as the total luminescence signal over the first 10 min. […]

[6] = Michaelis-Menten kinetics measurements of purified luciferases; type: biochemical; conditions: DTZ; mean (95% CI), n = 3
Description: For Michaelis-Menten kinetics measurements, 25 μL of serial diluted DTZ substrate in Tris pH 8.0 buffer was added into the wells of a white 96-well half-area microplate containing 25 μL of purified luciferases (final enzyme concentration: 100 nM; substrate concentration: 0.78 to 50 μM). Measurements were taken every 1 min (0.1 s integration and 10 s shaking between each interval) for a total of 20 min. Initial velocities were estimated as the average of the light intensities from the first three data points to fit the Michaelis-Menten equation. All relative arbitrary unit (RLU) per second values were converted to photon/s by the luminol-H2O2—HRP calibration method^45. Following the equation: Imax=LQY×kcat×[E], Imax is the maximal photon flux (photon s^−1), [E] is the total enzyme concentration, and V ax is the maximum photon flux per molecule (photon s^−1 molecule^−1) from the fitting of the Michaelis-Menten equation. To determine the luminescent quantum yields, 25 μL of 5 μM individual substrate in PBS was injected into 25 μL PBS containing 100 nM corresponding luciferase. DTZ was used for all LuxSit variants while CTZ was used as the substrate of native RLuc. The luminescence signals were monitored until the reactions were completed (0.1 s integration and measurements were taken every 5 s for a total of 40 min). […] To record emission spectra, 25 μL of 50 μM DTZ in PBS were injected into 25 μL of 200 nM pure luciferases and the emission spectra were collected with 0.1 s integration and 2 nm increments from 300 to 700 num. In vitro luminescence activity measurements of LuxSit-i expressing HEK293T or HeLa cells were done similarly as 15,000 intact cells or lysates were used in the assay instead of purified luciferases. To evaluate the substrate specificity, 25 μL of 50 μM substrate analogs in PBS were added to 25 μL of 200 nM indicated luciferases, and the signals were recorded over 20 min. Data were shown as the total luminescence signal over the first 10 min. We normalized the data by setting the highest emission substrate at 100%.

Molecule	Relative emission intensity [2]	Activity [3]	thermal stability (CD melting) [4]	increase of activity over LuxSit [2] [fold]	further results
B1					Km [1]: 1.5 µM; kcat [1]: 4.9 s⁻¹; kcat/Km [1]: 3.3e+06 M⁻¹ s⁻¹
B2	1	75.3	not fully unfolded at 95 °C		
B3	16.4			16	
B4	60.9	534.5	thermostable		LQY (luminescent quantum yield) [5]: 10.9 ± 1.5%
B5	19.3			19	Km [6]: 30.3 µM; Vmax [6]: 7.1(6.2-8.4) ×10^−2 photon s^−1 molecule^−1
